One block for each binder: values may come before it.
Columns and labels:
CgnC = target: T1, CgnC (Chondromyces crocatus CM c5); assay: MST; CgnA at constant high concentration
T1 chain: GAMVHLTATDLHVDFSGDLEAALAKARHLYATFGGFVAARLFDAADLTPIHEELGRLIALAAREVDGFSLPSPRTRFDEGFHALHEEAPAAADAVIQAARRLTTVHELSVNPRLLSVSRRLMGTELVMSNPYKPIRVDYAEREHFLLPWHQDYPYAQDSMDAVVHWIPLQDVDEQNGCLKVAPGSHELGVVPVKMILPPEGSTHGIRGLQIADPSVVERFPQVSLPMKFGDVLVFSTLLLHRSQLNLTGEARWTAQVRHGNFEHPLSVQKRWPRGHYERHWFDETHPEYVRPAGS

CgnE [1] = target: T2, CgnE (Chondromyces crocatus CM c5); assay: MST
T2 chain: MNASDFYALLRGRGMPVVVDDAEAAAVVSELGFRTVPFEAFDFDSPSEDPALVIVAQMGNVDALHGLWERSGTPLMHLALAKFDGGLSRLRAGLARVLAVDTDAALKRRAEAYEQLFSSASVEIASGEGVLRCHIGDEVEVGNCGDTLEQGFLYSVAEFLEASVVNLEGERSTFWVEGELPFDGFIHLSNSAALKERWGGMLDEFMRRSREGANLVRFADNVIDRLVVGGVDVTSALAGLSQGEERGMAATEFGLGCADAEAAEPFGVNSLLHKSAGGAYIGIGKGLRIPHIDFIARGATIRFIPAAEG

CgnE [2] = target: T2, CgnE; assay: CgnE titrated
CgnE [3] = target: T2, CgnE; assay: MST; CgnA at constant high concentration
[4] = target: T3, CgnB in the presence of CgnA (400 µM) (Chondromyces crocatus CM c5); assay: CgnA present with CgnC, CgnB titrated
T3 chain: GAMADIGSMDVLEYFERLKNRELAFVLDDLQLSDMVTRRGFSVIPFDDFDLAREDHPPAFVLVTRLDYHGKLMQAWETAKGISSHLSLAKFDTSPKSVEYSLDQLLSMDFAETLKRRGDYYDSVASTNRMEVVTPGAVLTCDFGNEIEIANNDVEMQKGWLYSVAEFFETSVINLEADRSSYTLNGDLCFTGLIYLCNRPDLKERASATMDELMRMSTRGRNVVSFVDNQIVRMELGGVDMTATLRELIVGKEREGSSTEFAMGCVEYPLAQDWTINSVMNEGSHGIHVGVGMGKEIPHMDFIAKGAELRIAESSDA

[5] = target: T4, CgnE in the presence of CgnA (400 µM) (Chondromyces crocatus CM c5); assay: CgnA present with CgnC, CgnE titrated
T4 chain: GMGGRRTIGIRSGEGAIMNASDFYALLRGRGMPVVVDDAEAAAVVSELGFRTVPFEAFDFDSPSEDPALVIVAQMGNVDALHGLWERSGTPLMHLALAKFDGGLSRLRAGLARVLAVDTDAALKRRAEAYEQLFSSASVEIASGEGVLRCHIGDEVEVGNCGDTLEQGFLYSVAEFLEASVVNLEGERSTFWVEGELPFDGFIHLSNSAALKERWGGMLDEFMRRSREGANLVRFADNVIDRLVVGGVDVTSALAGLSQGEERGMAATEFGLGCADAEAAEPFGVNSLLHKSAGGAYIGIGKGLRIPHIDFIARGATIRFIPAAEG

CgnB = target: T5, CgnB (Chondromyces crocatus CM c5); assay: MST
T5 chain: T3 chain

Kd (CgnC): 110 nM
B1: CgnB in the presence of CgnA (400 µM) (complex)
chain: T3 chain
modifications: sequence from Supplementary Table 8 (the excerpt mark inside it is read as contiguous); N-terminal GA is a cloning remnant; dimer by size-exclusion chromatography

Kd (CgnE [1]): 1100 nM
Kd (CgnE [2]): 1100 nM
Kd (CgnE [3]): 900 nM
Kd [4]: 110 nM
Kd [5]: 900 nM
B2: CgnC (enzyme)
chain: T1 chain
modifications: sequence from Supplementary Table 8 (the excerpt mark inside it is read as contiguous); N-terminal GA is a cloning remnant; dimer by size-exclusion chromatography

Kd (CgnB): 78200 nM
B3: CgnA leader peptide (CgnA^LP) (peptide)
chain: MKKTIKQISAGDRSKKGN

— paper PMC10070186 (2023)
